# In US10947523B2, “Biotechnological production of L-tryptophan” (Technische Universitaet Hamburg, priority 2017, dated 2021):
# Substitutions are numbered along the chain they refer to. Names may count otherwise.
# B1: QVFQ: E. coli TrpC variant S58Q, P59V, S60F, K61Q, SEQ ID NO: 30 (protein)
# chain: MQTVLAKIVADKAIWVEARKQQQPLASFQNEVQPSTRHFYDALQGARTAFILECKKAQVFQGVIRDDFDPARIAAIYKHYASAISVLTDEKYFQGSFNFLPIVSQIAPQPILCKDFIIDPYQIYLARYYQADACLLMLSVLDDDQYRQLAAVAHSLEMGVLTEVSNEEEQERAIALGAKVVGINNRDLRDLSIDLNRTRELAPKLGHNVTVISESGINTYAQVRELSHFANGFLIGSALMAHDDLHAAVRRVLLGENKVCGLTRGQDAKAAYDAGAIYGGLIFVATSPRCVNVEQAQEVMAAAPLQYVGVFRNHDIADVVDKAKVLSLAAVQLHGNEEQLYIDTLREALPAHVAIWKALSVGETLPAREFQHVDKYVLDNGQGGSGQRFDWSLLNGQSLGNVLLAGGLGADNCVEAAQTGCAGLDFNSAVESQPGIKDARLLASVFQTLRAY
# modifications: EcTrpC S58Q P59V S60F K61Q
# B2: S60G (protein)
# chain: B1 chain with Q58S, V59P, F60G, Q61K
# modifications: EcTrpC S60G
# B3: S60A: E. coli IGPs mutant S60A, SEQ ID NO: 3 (protein)
# chain: B1 chain with Q58S, V59P, F60A, Q61K
# modifications: EcTrpC S60A
# B4: I8V (protein)
# chain: B1 chain with I8V, Q58S, V59P, F60S, Q61K
# modifications: EcTrpC I8V
# B5: L188F (protein)
# chain: B1 chain with Q58S, V59P, F60S, Q61K, L188F
# modifications: EcTrpC L188F
# B6: 6His-TrpC: E. coli TrpC, two-domain form, 6His-tag at the N-terminus (protein, UniProt P00909 1-453, looked up)
# Tryptophan biosynthesis …: MMQTVLAKIVADKAIWVEARKQQQPLASFQNEVQPSTRHFYDALQGARTAFILECKKASPSKGVIRDDFDPARIAAIYKHYASAISVLTDEKYFQGSFNFLPIVSQIAPQPILCKDFIIDPYQIYLARYYQADACLLMLSVLDDDQYRQLAAVAHSLEMGVLTEVSNEEEQERAIALGAKVVGINNRDLRDLSIDLNRTRELAPKLGHNVTVISESGINTYAQVRELSHFANGFLIGSALMAHDDLHAAVRRVLLGENKVCGLTRGQDAKAAYDAGAIYGGLIFVATSPRCVNVEQAQEVMAAAPLQYVGVFRNHDIADVVDKAKVLSLAAVQLHGNEEQLYIDTLREALPAHVAIWKALSVGETLPAREFQHVDKYVLDNGQGGSGQRFDWSLLNGQSLGNVLLAGGLGADNCVEAAQTGCAGLDFNSAVESQPGIKDARLLASVFQTLRAY
# modifications: N-terminal His6 tag
# notes: E. coli TrpC, two-domain form, 6His-tag at the N-terminus
# Columns and labels:
# eIGPs-6His = target: T1, eIGPs-6His (Escherichia coli, UniProt P00909); assay: IGPs enzyme assay, inhibition by anthranilate; type: biochemical
# T1 construct: made in house; host or cells: E. coli BL21
# Method: (§1) The activity of IGPs from E. coli was measured by monitoring the formation of IGP via absorbance at 278 nm with a molar extinction coefficient value of 5500 M^−1 cm^−1 [24]. Assays were performed in 50 mM HEPPS pH 7.5, 4 mM EDTA at 30° C. with 20-25 μg/mL of purified enzymes in cuvettes. To investigate the effect of anthranilate on the activity of IGPs, the activities were measured in the presence of different concentrations of anthranilate. Unless stated otherwise, the reactions were started by adding 180 μM of the substrate CdRP. The synthesis of CdRP was performed by following the improved method reported by Kirschner et al.. The concentration of the synthesized CdRP in the stock solution was determined by measuring the concentrations of the product IGP with completely converted reactions.
# To elucidate the effect of anthranilate on the enzyme activity of eIGPs, the catalytic activity of the isolated eIGPs (eIGPs-6His) was examined in the presence of different concentrations of anthranilate. […] The inhibition constant (IC50, 50% inhibitory concentration) of eIGPs-6His was measured to be about 0.70 mM.
# ScTrpC = target: T2, ScTrpC (Saccharomyces cerevisiae, UniProt P00937); assay: Effect of anthranilate on IGPs activity of TrpC; type: biochemical; conditions: FIG. 7
# T2 sequence (P00937 1-484): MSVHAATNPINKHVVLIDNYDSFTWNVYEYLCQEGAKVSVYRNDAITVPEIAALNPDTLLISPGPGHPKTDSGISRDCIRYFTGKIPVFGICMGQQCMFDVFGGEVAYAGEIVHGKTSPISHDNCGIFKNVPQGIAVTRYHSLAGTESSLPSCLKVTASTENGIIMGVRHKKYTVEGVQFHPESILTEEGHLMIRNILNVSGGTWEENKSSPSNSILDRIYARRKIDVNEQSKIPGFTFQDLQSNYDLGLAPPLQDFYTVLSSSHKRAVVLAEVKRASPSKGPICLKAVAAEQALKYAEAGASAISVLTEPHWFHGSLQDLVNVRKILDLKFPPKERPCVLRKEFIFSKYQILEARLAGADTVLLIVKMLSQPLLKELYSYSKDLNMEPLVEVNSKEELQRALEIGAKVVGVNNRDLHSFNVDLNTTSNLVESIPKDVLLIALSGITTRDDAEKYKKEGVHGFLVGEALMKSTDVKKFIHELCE
# [1] = target: T3, ScIGPs (ScTrpC without anthranilate synthase II domain) (Saccharomyces cerevisiae, UniProt P00937); assay: Effect of anthranilate on IGPs activity; type: biochemical; conditions: anthranilate synthase II domain removed, FIG. 8
# T3 construct: ScIGPs=ScTrpC without anthranilate synthase II domain
# T3 sequence (P00937 215-484 limits assumed): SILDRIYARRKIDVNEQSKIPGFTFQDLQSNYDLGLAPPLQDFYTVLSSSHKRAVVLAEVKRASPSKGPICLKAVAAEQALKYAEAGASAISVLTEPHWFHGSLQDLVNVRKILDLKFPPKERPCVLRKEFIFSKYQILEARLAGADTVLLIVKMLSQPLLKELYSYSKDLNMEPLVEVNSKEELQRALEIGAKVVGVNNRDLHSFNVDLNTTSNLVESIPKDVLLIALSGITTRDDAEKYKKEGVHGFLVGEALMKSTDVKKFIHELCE
# Source text: FIG. 8. Effects of anthranilate on the activities of ScTrpC and ScIGPs (ScIGPs=ScTrpC without anthranilate synthase II domain).
# eIGPs mutant S60A = target: T4, eIGPs mutant S60A (Escherichia coli, UniProt P00909, S61A); assay: IGPs enzyme assay, inhibition by anthranilate; type: biochemical
# T4 construct: made in house; host or cells: E. coli BL21
# T4 sequence (P00909 2-260 S61A): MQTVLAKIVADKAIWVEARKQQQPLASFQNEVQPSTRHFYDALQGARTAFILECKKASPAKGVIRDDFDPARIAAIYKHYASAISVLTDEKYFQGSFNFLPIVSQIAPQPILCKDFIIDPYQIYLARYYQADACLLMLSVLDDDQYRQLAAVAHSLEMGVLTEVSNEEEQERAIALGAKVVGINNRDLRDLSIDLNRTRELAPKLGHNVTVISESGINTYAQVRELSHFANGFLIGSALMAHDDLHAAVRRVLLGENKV
# Method: as §1
# (§2) […]. Therefore, the effect of anthranilate on the activity of this mutants was not investigated. […] […].
# eIGPs mutant S60G = target: T5, eIGPs mutant S60G (Escherichia coli, UniProt P00909, S61G); assay: IGPs enzyme assay, inhibition by anthranilate; type: biochemical; conditions: read-out: activity of mutant S60G inhibited
# T5 construct: made in house; host or cells: E. coli BL21
# T5 sequence (P00909 2-260 S61G): as the sequence (P00909 2-260 S61A) above, with A60G counted along it
# Method: as §1, §2
# AgTrpC = AgTrpC (Aspergillus niger, UniProt P05328); assay: Effect of anthranilate on IGPs activity of TrpC; type: biochemical; conditions: FIG. 7
# Chain of AgTrpC (P05328 other isoform, or with tags, fused parts or gaps with the stated changes): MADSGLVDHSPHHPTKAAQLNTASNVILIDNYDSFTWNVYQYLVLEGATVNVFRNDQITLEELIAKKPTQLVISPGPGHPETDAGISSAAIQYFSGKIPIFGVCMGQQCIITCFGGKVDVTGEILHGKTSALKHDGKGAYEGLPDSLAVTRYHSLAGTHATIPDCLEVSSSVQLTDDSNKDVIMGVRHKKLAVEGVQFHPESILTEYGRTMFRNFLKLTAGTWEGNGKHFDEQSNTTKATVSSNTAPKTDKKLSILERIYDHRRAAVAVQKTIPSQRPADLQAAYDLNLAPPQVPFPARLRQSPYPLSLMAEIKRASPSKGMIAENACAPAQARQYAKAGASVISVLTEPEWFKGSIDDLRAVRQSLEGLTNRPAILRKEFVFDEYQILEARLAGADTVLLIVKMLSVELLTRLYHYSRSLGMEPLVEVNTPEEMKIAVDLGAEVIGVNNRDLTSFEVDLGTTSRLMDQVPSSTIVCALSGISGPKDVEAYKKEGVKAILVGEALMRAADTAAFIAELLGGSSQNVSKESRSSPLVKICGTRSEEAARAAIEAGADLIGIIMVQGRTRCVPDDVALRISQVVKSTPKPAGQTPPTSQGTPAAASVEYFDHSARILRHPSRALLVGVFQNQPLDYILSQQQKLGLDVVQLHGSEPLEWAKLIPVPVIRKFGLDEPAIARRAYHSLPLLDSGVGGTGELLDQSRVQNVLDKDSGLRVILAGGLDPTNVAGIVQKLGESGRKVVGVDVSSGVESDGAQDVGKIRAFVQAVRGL
# 6His-eIGPs = target: T6, 6His-eIGPs (Escherichia coli, UniProt P00909); assay: IGPs enzyme assay, inhibition by anthranilate; type: biochemical; conditions: isolated IGPs domain, N-terminal His-tag
# T6 construct: made in house; host or cells: E. coli Top10
# Method: (§3) The activity of IGPs from E. coli was measured by monitoring the formation of IGP via absorbance at 278 nm [23] with a molar extinction coefficient value of 5500 M^−1 cm^−1 [24]. Assays were performed in 50 mM HEPPS pH 7.5, 4 mM EDTA at 30° C. with 20-25 μg/mL of purified enzymes in cuvettes. To investigate the effect of anthranilate on the activity of IGPs, the activities were measured in the presence of different concentrations of anthranilate. Unless stated otherwise, the reactions were started by adding 180 μM of the substrate CdRP. […] The concentration of the synthesized CdRP in the stock solution was determined by measuring the concentrations of the product IGP with completely converted reactions.
# 6His-TrpC = target: T7, 6His-TrpC (Escherichia coli, UniProt P00909); assay: IGPs enzyme assay, inhibition by anthranilate; type: biochemical
# T7 construct: inserting the PCR products amplified from E. coli S028 with primers EcoRI-6H-trpC and trpC-XbaI; made in house; host or cells: E. coli Top10
# Method: as §3
# In order to figure out whether the PRAi domain has an influence on the inhibition resistance of eIGPs, the effect of anthranilate on the activity of IGPs in the form of eIGPs-PRAi (6His-TrpC) was tested.
# [2] = Specific activities and kinetic constants of TrpC WT and TrpC QVFQ; type: biochemical, Escherichia coli
# Method: as §1
# [3] = Enzyme assay of wild-type and mutant eIGPs (specific activity); type: biochemical, Escherichia coli; conditions: for activity relative to the wild-type enzyme: 18 μM CdRP, absence of anthranilate; for anthranilate resistance / sensitivity compared with wild-type eIGPs (in words): FIG. 3; for specific activity compared with wild type in the presence of anthranilate: more than 0.1 mM anthranilate, 180 μM CdRP
# Method: as §1, §2
# [4] = two-domain form, reference [31]; cited from earlier work
# [5] = SDS-PAGE analysis, data not shown
# [6] = Michaelis constants of 6His-TrpC without and with anthranilate; type: biochemical, Escherichia coli
# Method: as §1
# To identify the mechanism of the inhibition of eIGPs by anthranilate, the effect of the inhibitor on the Michaelis constants of eIGPs was investigated with 6His-TrpC. Various concentration of CdRP (from 2.6 to 260 μM) were used when the reactions carried out in the absence of anthranilate and in the presence of 0.5 mM anthranilate, respectively. […] It is somewhat consistent with the fact that anthranilate has a distinguished binding site from the catalytic site based on the crystal structure analysis.
molecule,measurement,setting,value
"Nc1ccccc1C(=O)O [anthranilate, 2-Aminobenzoic acid]",IC50,"eIGPs-6His; 180 μM CdRP, 30° C., pH 7.5, read-out: inhibition constant (IC50, 50% inhibitory concentration) of eIGPs-6His",~700 µM
same,inhibition at 500 µM,"eIGPs-6His; 0.5 mM anthranilate, read-out: activity of eIGPs inhibited",46%
same,regulation of ScTrpC activity by anthranilate,ScTrpC,activated
same,regulation of ScIGPs activity by anthranilate,[1],no activation was observed
same,IC50,eIGPs mutant S60A,~2 mM
same,inhibition at 2000 µM,eIGPs mutant S60A; read-out: activity of mutant S60A inhibited,46%
same,inhibition at 2000 µM,eIGPs mutant S60G,20%
same,regulation of AgTrpC activity by anthranilate,AgTrpC,activated
same,IC50,6His-eIGPs,~400 µM
same,mechanism of inhibition,"6His-TrpC; Lineweaver-Burk, CdRP 2.6 to 260 μM, 0 vs 0.5 mM anthranilate",noncompetitive inhibitor
same,IC50,6His-TrpC; eIGPs-PRAi two-domain form,~1.3 mM
B1,Specific activities,[2]; Anthranilate 0 mM,1.886 ± 0.067 µmol/min/mg
same,Specific activities,[2]; Anthranilate 0.5 mM,1.124 ± 0.074 µmol/min/mg
same,Specific activities,[2]; Anthranilate 1 mM,1.152 ± 0.089 µmol/min/mg
same,Specific activities,[2]; Anthranilate 2 mM,0.906 ± 0.022 µmol/min/mg
same,Specific activities,[2]; Anthranilate 3 mM,0.866 ± 0.016 µmol/min/mg
same,Km,"[2]; apparent, substrate CdRP",6.14 ± 0.04 µM
same,kcat,"[2]; apparent, substrate CdRP",0.027 ± 0.001 s⁻¹
same,inhibition by anthranilate compared to wildtype TrpC (in words),"[2]; increasing anthranilate concentrations, FIG. 12",significantly less inhibited by anthranilate
B2,activity relative to the wild-type enzyme,[3],52%
same,Specific activity in the absence of anthranilate,[3]; CdRP 18 μM,1.13 ± 0.02 µmol/min/mg
same,Specific activity in the absence of anthranilate,[3]; CdRP 60 μM,1.75 ± 0.03 µmol/min/mg
same,Specific activity in the absence of anthranilate,[3]; CdRP 180 μM,1.92 ± 0.02 µmol/min/mg
same,anthranilate resistance / sensitivity compared with wild-type eIGPs (in words),[3],significantly improved
same,"Km ranking among WT, S60A, S60G",[3]; from rates of increased absorbance,largest Km
same,specific activity compared with wild type in the presence of anthranilate,[3],higher than that of the wild type
B3,efficiency (Kcat/Km) relative to the wild-type enzyme,[4],about 30%
same,activity relative to the wild-type enzyme,[3],74%
same,Specific activity in the absence of anthranilate,[3]; CdRP 18 μM,1.60 ± 0.03 µmol/min/mg
same,Specific activity in the absence of anthranilate,[3]; CdRP 60 μM,2.05 ± 0.06 µmol/min/mg
same,Specific activity in the absence of anthranilate,[3]; CdRP 180 μM,2.13 ± 0.01 µmol/min/mg
same,anthranilate resistance / sensitivity compared with wild-type eIGPs (in words),[3],significantly improved
same,specific activity compared with wild type in the presence of anthranilate,[3],higher than that of the wild type
B4,solubility of the expressed protein (in words),[5],poorer solubility than the wild-type eIGPs
same,Specific activity in the absence of anthranilate,[3]; CdRP 180 μM,0.90 ± 0.03 µmol/min/mg
same,anthranilate resistance / sensitivity compared with wild-type eIGPs (in words),[3],slightly increased
B5,Specific activity in the absence of anthranilate,[3]; CdRP 180 μM,1.04 ± 0.02 µmol/min/mg
same,anthranilate resistance / sensitivity compared with wild-type eIGPs (in words),[3],slightly increased
B6,Km,[6]; 0.5 mM anthranilate,1530 nM
same,Vmax,[6]; 0.5 mM anthranilate,2.63 µmol/min/mg
same,Km,[6]; no anthranilate,1570 nM
same,Vmax,[6]; no anthranilate,3.64 µmol/min/mg
